Sequences and labels used below:
B1: Neutrophil cytosol factor 2 (Homo sapiens), P19878 (parent)
chain: MSLVEAISLWNEGVLAADKKDWKGALDAFSAVQDPHSRICFNIGCMYTILKNMTEAEKAFTRSINRDKHLAVAYFQRGMLYYQTEKYDLAIKDLKEALIQLRGNQLIDYKILGLQFKLFACEVLYNIAFMYAKKEEWKKAEEQLALATSMKSEPRHSKIDKAMECVWKQKLYEPVVIPVGKLFRPNERQVAQLAKKDYLGKATVVASVVDQDSFSGFAPLQPQAAEPPPRPKTPEIFRALEGEAHRVLFGFVPETKEELQVMPGNIVFVLKKGNDNWATVMFNGQKGLVPCNYLEPVELRIHPQQQPQEESSPQSDIPAPPSSKAPGRPQLSPGQKQKEEPKEVKLSVPMPYTLKVHYKYTVVMKTQPGLPYSQVRDMVSKKLELRLEHTKLSYRPRDSNELVPLSEDSMKDAWGQVKNYCLTLWCENTVGDQGFPDEPKESEKADANNQTTEPQLKKGSQVEALFSYEATQPEDLEFQEGDIILVLSKVNEEWLEGECKGKVGIFPKVFVEDCATTDLESTRREV

Variants of B1 are the subject of this test. The conditions noted are these: with rac2_human RAC2, P15153.
Regarding R38Q, the “effect of a mutation on the interaction” value is on record as “decreasing interaction strength”.
